Entries after “also recorded” stand apart in the source; their conditions may differ.
B1: #9: major mature VEGF-C (112-227) with C137A mutation, SEQ ID NO: 737 (His) / 738 (protein)
chain: AHYNTEILKSIDNEWRKTQCMPREVAIDVGKEFGVATNTFFKPPCVSVYRCGGCCNSEGLQCMNTSTSYLSKTLFEITVPLSQGPKPVTISFANHTSCRCMSKLDVYRQVHSIIRR
B2: #2: major mature VEGF-C (112-227), wild type, SEQ ID NO: 731 (His) / 732 (protein, listed as Homo sapiens)
chain: AHYNTEILKSIDNEWRKTQCMPREVCIDVGKEFGVATNTFFKPPCVSVYRCGGCCNSEGLQCMNTSTSYLSKTLFEITVPLSQGPKPVTISFANHTSCRCMSKLDVYRQVHSIIRR
B3: #8: minor mature VEGF-C (103-227) with C137A mutation, SEQ ID NO: 735 (His) / 736 (protein)
chain: TEETIKFAAAHYNTEILKSIDNEWRKTQCMPREVAIDVGKEFGVATNTFFKPPCVSVYRCGGCCNSEGLQCMNTSTSYLSKTLFEITVPLSQGPKPVTISFANHTSCRCMSKLDVYRQVHSIIRR
B4: #7: minor mature VEGF-C (103-227), wild type, SEQ ID NO: 733 (His) / 734 (protein, listed as Homo sapiens)
chain: TEETIKFAAAHYNTEILKSIDNEWRKTQCMPREVCIDVGKEFGVATNTFFKPPCVSVYRCGGCCNSEGLQCMNTSTSYLSKTLFEITVPLSQGPKPVTISFANHTSCRCMSKLDVYRQVHSIIRR

What was measured:
EGFRvIII CARTs = experiment: Cytokine production of EGFRvIII CARTs stimulated by ligand-presenting MSRs; type: cell-based; conditions: lipid-coated MSRs, multiplex cytokine analysis
Method: Briefly, liposomes primarily composed of POPC with 1 mol % PE-biotin were formed using a thin film rehydration method and extrusion through a 100 nm polycarbonate membrane. Hydroxyl functionalized MSRs were incubated with the liposomes to allow the formation of a supported lipid bilayer on the MSR surface (FIG. 6). To functionalize the MSRs with CD3 and CD28 agonistic antibodies, MSRs were washed several times with PBS, incubated with streptavidin, and then tethered with biotinylated CD3 and CD28 antibodies. For MSR-immobilization of EGFRvIII CAR-binding peptides, a biotinylated EGFRvIII CAR-binding peptide was used (FIG. 7).
After incubation with the desired ligands, MSRs were washed several times with PBS and resuspended in culture medium at various concentrations and incubated with T cells. […] Cytokine production was assessed using a multiplex cytokine analysis method (Mesoscale Delivery V-Plex).

[1] = system: lymphatic endothelial cells (LECs); experiment: In vivo lymphangiogenesis in mouse skin after cryogel delivery (flow cytometry); design: species or system C57/BL6 mice; conditions: for in vivo lymphangiogenesis (LEC counts per mg of tissue): 10 μg VEGF-C in cryogel (0.25 mg/ml laponite), day 14
Method: (§1) Tissues were harvested from mice, weighted, and cut into very fine pieces with scissors. Samples were then enzymatically digested under constant stirring in of digestion media containing collagenase 4 and DNAse 1. Samples were then pipetted up and down. Following pipetting, digestion media containing collagenase D and DNAse 1 was added to the samples. Samples were pipetted up and down for 3 cycles. EDTA was added (5 mM) and cells were filtered through 70 μm filters and 40 uM mesh and resuspended in Fc blocking buffer. Cells were washed and stained for FACS analysis.
(§2) Cryogels (0.25 mg/ml laponite) containing 10 μg of different VEGF-C constructs were injected superficially into the dermis mice (N=5/group) at day 0. At day 14 mice were euthanized and the skin/cryogel (combined) were dissected for digestion and FACS analysis. Representative FACS plots of LECs (CD31^+, PDPN^+) are pre-gated on FSC-A/SSC-A, and CD45^− (FIG. 22). The results of FIG. 23 bear on the delivery of VEGF-C. Mice were injected with VEGF-C (N=12) or blank cryogels (N=10) synthesized as previously mentioned. Skin/gels from mice were harvested at timepoints day 7, 14, and 21, digested, and stained for FACS. LECs were gated on CD45^− CD31^+ PDPN^+. BECs were gated on CD45^− CD31^+ PDPN^−. CD4 and CD8 T Cells were gated on CD45^+ CD11b^−CD11c^−Thy1^+.
First, cryogels (0.25 mg/ml laponite) containing 10 μg of different VEGF-C forms, including the dimeric forms of the major and minor mature forms that are wild-type (#2 and #7, respectively) and the major and minor mature forms that comprise the C137A mutation (#9 and #8, respectively), were injected superficially into the dermis of mice (N=5/group) at day 0. At day 14 mice were euthanized and the skin/cryogel (combined) were dissected for digestion and FACS analysis (FIG. 22A). Specifically, tissues were harvested from mice, weighted, and cut into very fine pieces with scissors. Samples were then enzymatically digested under constant stirring of digestion media containing collagenase 4 and DNAse 1. Samples were then pipetted up and down. Following pipetting, digestion media containing collagenase D and DNAse 1 was added to the samples. Samples were pipetted up and down for 3 cycles. EDTA was added (5 mM) and cells were filtered through 70 μm filters and 40 μM mesh and resuspended in Fc blocking buffer. Cells were washed and stained for FACS analysis.
In addition, the response of skin lymphatics to […] VEGF-C delivered by alginate cryogels was measured. […] Skin/gels from mice were harvested as described above, at timepoints day 7, 14, and 21, digested, and stained for FACS. LECs were gated on CD45^− CD31^+ PDPN^+. BECs were gated on CD45^− CD31^+ PDPN^−. […] The number of cells per mg of tissue were also quantified.

[2] = system: human dermal lymphatic endothelial cells (HDLECs); experiment: HDLECs sprouting (tube formation) assay; type: cell-based; conditions: 600 μg of VEGF-C protein, overnight, phalloidin staining
Method: Human Dermal Lymphatic Endothelial Cells (HDLECs) were seeded (p0) and passaged at 75% confluence until p4 or enough cells were obtained for experiments. One ml was then aliquoted into Eppendorf tubes, treated with 600 μg of VEGF-C protein, and vortexed. Each treatment was added to warmed media in a 6 well plate and incubated overnight at 37 C (5% CO2). For imaging analysis cells were washed and then fixed with 3.7% formalin-0.05% Triton X-100 solution (fixing buffer), then washed and coated with 0.1% Triton X-100 solution (permeabilization buffer). After washing twice with PBS cells were coated with 0.05% Triton X-100 in 1% BSA solution (blocking buffer). DAPI and phalloidin staining was performed according to known protocols. After staining cells were washed twice with PBS and imaged.
An overview of the experimental setup of the in vitro sprouting assay on HDLECs to test the biological activity of VEGF-C variants is shown in FIG. 20A. HDLECs were first seeded (p0) and passaged at 75% confluence until p4 or enough cells were obtained for experiments. About 1 mL of the HDLECs was then aliquoted into Eppendorf tubes, treated with 600 μg of VEGF-C protein, and vortexed. Each treatment was added to warmed media in a 6 well plate and incubated overnight at 37 C (5% CO2). For imaging analysis, cells were washed and then fixed with 3.7% formalin-0.05% Triton X-100 solution (fixing buffer), then washed and coated with 0.1% Triton X-100 solution (permeabilization buffer). After washing twice with PBS, cells were coated with 0.05% Triton X-100 in 1% BSA solution (blocking buffer). DAPI and phalloidin staining was performed according to known protocols. After phalloidin staining, cells were washed twice with PBS, and imaged for tube formation.

[3] = system: CD4+ T cells and CD8+ T cells; experiment: Immune infiltration of mouse skin after cryogel delivery (flow cytometry); type: in vivo, C57/BL6 mice; conditions: skin on top of the cryogels
Method: as §1
as §2, with “BECs were gated on CD45^− CD31^+ PDPN^−. CD4 and CD8 T Cells were gated on CD45^+ CD11b^−CD11c^−Thy1^+.” left out
In addition, the response of skin lymphatics to […] VEGF-C delivered by alginate cryogels was measured. […] The number of cells per mg of tissue were also quantified.

| Molecule | interferon gamma and IL-2 production (EGFRvIII CARTs) | in vivo lymphangiogenesis (LEC counts per mg of tissue) ([1]; skin) | sprouting of HDLECs (tube formation) [2] | other results |
| --- | --- | --- | --- | --- |
| EGFRvIII CAR-binding peptide bound to the surface of the MSRs: biotinylated peptide LEEKKGNYVVTDH (SEQ ID NO: 756) coupled via streptavidin to lipid-coated MSRs | produced interferon gamma and IL-2 |  |  |  |
| free EGFRvIII CAR-binding peptide in solution: EGFRvIII CAR-binding peptide LEEKKGNYVVTDH (SEQ ID NO: 756) [reference compound] | no response |  |  |  |
| B1 |  | high in vivo lymphangiogenesis; also recorded: higher amounts of LECs compared to the dimers of the major and minor mature forms that are wild-type | better sprouting of HDLECs than the immature form |  |
| B2 |  |  | better sprouting of HDLECs than the immature form |  |
| B3 |  | high in vivo lymphangiogenesis; also recorded: higher amounts of LECs compared to the dimers of the major and minor mature forms that are wild-type | better sprouting of HDLECs than the immature form | blood vascular endothelial cells (BECs, CD45−CD31+PDPN−) ([1]; skin, 14 days after cryogel delivery): not affected; day of peak T cell / immune infiltration after cryogel delivery [3]: 14 days |
| B4 |  |  | better sprouting of HDLECs than the immature form | time of peak lymphangiogenesis after cryogel delivery ([1]; 10 μg VEGF-C in alginate cryogel, subcutaneous): 14 days |

— patent US20230302155A1, “COMPOSITIONS AND METHODS FOR IN VIVO GENERATION OF CAR EXPRESSING CELLS” (Novartis AG, priority 2020, published 2023)
